Measured values from paper PMC8967028.

target: SARS-CoV-1 spike (S) receptor binding domain (SARS-CoV-1); assay: SPR

| Substance | koff [s⁻¹] |
| --- | --- |
| VHH-72-Fc S56M,T99V (Fc fusion) | 0.00016 |
| VHH-72-Fc S56M,L97W (Fc fusion) | 0.0002 |
| VHH-72-Fc L97W,T99V (Fc fusion) | 8e-05 |
| VHH-72-Fc L97W (Fc fusion) | 0.00018 |
| VHH-72-Fc S56M (Fc fusion) | 0.00025 |
| VHH-72-Fc S56M,L97W,T99V (Fc fusion) | 0.00013 |
| VHH-72-Fc T99V (Fc fusion) | 0.00012 |
